Assay results published in paper PMC9482650, “Quantitative fragmentomics allow affinity mapping of interactomes” (Nature Communications, 2022).

T1: MPP2, Q14168
T1 sequence (Q14168 180-250, limits assumed, looked up): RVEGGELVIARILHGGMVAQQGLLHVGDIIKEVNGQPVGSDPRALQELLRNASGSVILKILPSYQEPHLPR

T2: SIPA1L2, Q9P2F8
T2 sequence (Q9P2F8 945-1036, limits assumed, looked up): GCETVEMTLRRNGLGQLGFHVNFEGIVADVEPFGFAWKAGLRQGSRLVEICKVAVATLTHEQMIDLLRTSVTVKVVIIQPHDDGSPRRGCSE

T3: PTPN13_1, Q12923
T3 sequence (Q12923 1088-1188, limits assumed, looked up): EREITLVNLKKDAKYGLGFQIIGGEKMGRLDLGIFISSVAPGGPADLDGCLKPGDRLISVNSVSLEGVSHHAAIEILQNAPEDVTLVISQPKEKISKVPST

T4: MPDZ_5, O75970
T4 sequence (O75970 695-796, limits assumed, looked up): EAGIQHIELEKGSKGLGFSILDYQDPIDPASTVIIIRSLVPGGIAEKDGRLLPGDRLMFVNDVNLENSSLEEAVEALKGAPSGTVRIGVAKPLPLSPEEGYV

T5: SNTB1, Q13884
T5 sequence (Q13884 107-205, limits assumed, looked up): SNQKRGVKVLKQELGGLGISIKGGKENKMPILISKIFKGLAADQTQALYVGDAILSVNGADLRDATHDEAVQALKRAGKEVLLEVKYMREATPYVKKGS

T6: FRMPD1, Q5SYB0
T6 sequence (Q5SYB0 52-145, limits assumed, looked up): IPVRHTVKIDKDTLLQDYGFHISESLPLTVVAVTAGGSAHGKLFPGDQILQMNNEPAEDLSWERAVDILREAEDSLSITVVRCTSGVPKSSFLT

T7: SNTG2, Q9NY99
T7 sequence (Q9NY99 68-166, limits assumed, looked up): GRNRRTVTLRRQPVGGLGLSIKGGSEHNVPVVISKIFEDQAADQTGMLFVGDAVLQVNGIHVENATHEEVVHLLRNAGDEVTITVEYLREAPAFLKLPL

T8: LRRC7, Q96NW7
T8 sequence (Q96NW7 1440-1537, limits assumed, looked up): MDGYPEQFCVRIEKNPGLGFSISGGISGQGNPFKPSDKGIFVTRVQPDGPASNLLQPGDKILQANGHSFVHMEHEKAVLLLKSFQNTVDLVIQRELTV

T9: HTRA4, P83105
T9 sequence (P83105 378-476, limits assumed, looked up): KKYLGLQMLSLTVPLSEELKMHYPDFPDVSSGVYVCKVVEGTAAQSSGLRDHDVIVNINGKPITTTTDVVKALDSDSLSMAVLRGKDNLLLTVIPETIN

T10: CARD11, Q9BXL7
T10 sequence (Q9BXL7 662-765, limits assumed, looked up): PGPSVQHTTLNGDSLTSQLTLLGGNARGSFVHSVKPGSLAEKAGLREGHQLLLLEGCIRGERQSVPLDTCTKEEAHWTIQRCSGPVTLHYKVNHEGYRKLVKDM

T11: NHERF3_4, Q5T2W1
T11 sequence (Q5T2W1 373-468, limits assumed, looked up): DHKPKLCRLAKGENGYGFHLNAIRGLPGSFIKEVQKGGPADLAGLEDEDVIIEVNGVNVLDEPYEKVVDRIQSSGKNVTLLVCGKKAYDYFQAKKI

B1: YAP1, P46937 (peptide)
chain: LDKESFLTWL
B2: SCN4A, P35499 (peptide)
chain: VRPGVKESLV
B3: PKN2, Q16513 (peptide)
chain: RDFDYIADWC
B4: NECTIN3, Q9NQS3 (peptide)
chain: SVISRREWYV
B5: UNC93A, Q86WB7 (peptide)
chain: AEDEEIQTKM
B6: ADAM17, P78536 (peptide)
chain: NRVDSKETEC

Legend:
Test in all cases: holdup assay
Set-up in all cases: key: below the threshold = too weak to quantify, mostly under pKd 3.1 to 4
Conditions in all cases: plain residues with an end cap or a label only (N-terminal biotin on a linker: ado-ado)
GRASP, Q7Z6J2 = target: GRASP, Q7Z6J2
NHERF2_2, Q15599 = target: NHERF2_2, Q15599
NHERF4_1, Q86UT5-2 = target: NHERF4_1, Q86UT5-2
MPP2, Q14168 = target: T1, MPP2, Q14168
SIPA1L2, Q9P2F8 = target: T2, SIPA1L2, Q9P2F8
PTPN13_1, Q12923 = target: T3, PTPN13_1, Q12923
MAGI3_2, Q5TCQ9 = target: MAGI3_2, Q5TCQ9
MPDZ_5, O75970 = target: T4, MPDZ_5, O75970
HTRA1, Q92743 = target: HTRA1, Q92743
DLG1_2, Q12959 = target: DLG1_2, Q12959
DLG4_3, P78352 = target: DLG4_3, P78352
PICK1, Q9NRD5 = target: PICK1, Q9NRD5
GRIP2_3, Q9C0E4 = target: GRIP2_3, Q9C0E4
Inadl_5, Q8NI35 = target: Inadl_5, Q8NI35
SNTB1, Q13884 = target: T5, SNTB1, Q13884
FRMPD1, Q5SYB0 = target: T6, FRMPD1, Q5SYB0
SNTG2, Q9NY99 = target: T7, SNTG2, Q9NY99
FRMPD2_2, Q68DX3 = target: FRMPD2_2, Q68DX3
LAP2, Q96RT1 = target: LAP2, Q96RT1
LRRC7, Q96NW7 = target: T8, LRRC7, Q96NW7
TJP1_3, Q07157 = target: TJP1_3, Q07157
HTRA4, P83105 = target: T9, HTRA4, P83105
CARD11, Q9BXL7 = target: T10, CARD11, Q9BXL7
Inadl_1, Q8NI35 = target: Inadl_1, Q8NI35
DLG4_2, P78352 = target: DLG4_2, P78352
NHERF3_4, Q5T2W1 = target: T11, NHERF3_4, Q5T2W1

LAP2, Q96RT1, sequence (Q96RT1 other isoform, or with tags, fused parts or gaps): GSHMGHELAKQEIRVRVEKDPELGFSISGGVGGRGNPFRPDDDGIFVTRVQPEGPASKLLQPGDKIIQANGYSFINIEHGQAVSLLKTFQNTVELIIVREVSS
Inadl_5, Q8NI35, sequence (Q8NI35 673-780): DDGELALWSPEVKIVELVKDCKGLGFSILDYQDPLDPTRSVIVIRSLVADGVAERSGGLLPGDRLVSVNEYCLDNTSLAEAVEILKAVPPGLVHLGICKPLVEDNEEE
NHERF4_1, Q86UT5-2, sequence (Q86UT5 other isoform, or with tags, fused parts or gaps): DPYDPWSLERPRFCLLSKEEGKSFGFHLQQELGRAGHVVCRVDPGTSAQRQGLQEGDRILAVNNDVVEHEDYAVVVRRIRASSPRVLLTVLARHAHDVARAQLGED
NHERF2_2, Q15599, sequence (Q15599 142-238): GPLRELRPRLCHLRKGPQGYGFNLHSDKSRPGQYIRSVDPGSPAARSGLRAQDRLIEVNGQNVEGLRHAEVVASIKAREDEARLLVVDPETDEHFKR
DLG1_2, Q12959, sequence (Q12959 314-412): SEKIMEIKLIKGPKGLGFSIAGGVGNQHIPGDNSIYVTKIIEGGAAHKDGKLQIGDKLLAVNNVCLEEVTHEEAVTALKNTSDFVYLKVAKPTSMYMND
Inadl_1, Q8NI35, sequence (Q8NI35 113-229): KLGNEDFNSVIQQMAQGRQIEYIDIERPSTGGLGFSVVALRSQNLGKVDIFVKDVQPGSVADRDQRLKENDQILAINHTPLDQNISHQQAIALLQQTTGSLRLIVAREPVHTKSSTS
GRIP2_3, Q9C0E4, sequence (Q9C0E4 238-339): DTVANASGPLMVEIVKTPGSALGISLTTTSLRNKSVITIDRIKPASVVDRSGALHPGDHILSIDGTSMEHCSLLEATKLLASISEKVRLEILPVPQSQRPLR
MAGI3_2, Q5TCQ9, sequence (Q5TCQ9 398-503): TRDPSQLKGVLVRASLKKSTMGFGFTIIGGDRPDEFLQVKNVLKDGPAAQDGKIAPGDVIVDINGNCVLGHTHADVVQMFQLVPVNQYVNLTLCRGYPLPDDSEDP
HTRA1, Q92743, sequence (Q92743 360-477): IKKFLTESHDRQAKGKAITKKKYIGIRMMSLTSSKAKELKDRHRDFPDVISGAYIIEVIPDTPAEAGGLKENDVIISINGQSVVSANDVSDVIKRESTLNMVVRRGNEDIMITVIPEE
FRMPD2_2, Q68DX3, sequence (Q68DX3 944-1038): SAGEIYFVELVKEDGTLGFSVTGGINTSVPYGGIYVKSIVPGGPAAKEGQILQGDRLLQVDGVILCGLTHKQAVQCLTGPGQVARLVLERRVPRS
DLG4_3, P78352, sequence (P78352 306-403): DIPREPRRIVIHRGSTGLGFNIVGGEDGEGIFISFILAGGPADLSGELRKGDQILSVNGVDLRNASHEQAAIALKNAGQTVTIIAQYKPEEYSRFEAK
GRASP, Q7Z6J2, sequence (Q7Z6J2 96-193): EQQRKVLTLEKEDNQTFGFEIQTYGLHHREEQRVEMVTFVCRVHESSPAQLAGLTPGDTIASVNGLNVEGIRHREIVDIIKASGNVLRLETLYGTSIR
TJP1_3, Q07157, sequence (Q07157 416-512): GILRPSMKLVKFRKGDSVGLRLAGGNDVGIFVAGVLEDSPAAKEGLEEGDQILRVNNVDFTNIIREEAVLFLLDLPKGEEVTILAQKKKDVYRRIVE
PICK1, Q9NRD5, sequence (Q9NRD5 17-115): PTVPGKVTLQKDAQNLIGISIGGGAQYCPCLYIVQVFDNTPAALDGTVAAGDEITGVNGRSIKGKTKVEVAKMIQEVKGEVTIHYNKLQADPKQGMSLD
DLG4_2, P78352, sequence (P78352 155-259): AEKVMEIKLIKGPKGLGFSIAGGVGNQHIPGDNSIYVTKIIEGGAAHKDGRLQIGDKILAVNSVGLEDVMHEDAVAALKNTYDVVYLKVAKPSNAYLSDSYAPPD

Row | Binder | pKd (GRASP, Q7Z6J2) | pKd (NHERF2_2, Q15599) | pKd (NHERF4_1, Q86UT5-2) | pKd (MPP2, Q14168) | pKd (SIPA1L2, Q9P2F8) | pKd (PTPN13_1, Q12923) | pKd (MAGI3_2, Q5TCQ9) | pKd (MPDZ_5, O75970) | pKd (HTRA1, Q92743) | pKd (DLG1_2, Q12959) | pKd (DLG4_3, P78352) | pKd (PICK1, Q9NRD5) | pKd (GRIP2_3, Q9C0E4) | pKd (Inadl_5, Q8NI35) | pKd (SNTB1, Q13884) | pKd (FRMPD1, Q5SYB0) | pKd (SNTG2, Q9NY99) | pKd (FRMPD2_2, Q68DX3) | pKd (LAP2, Q96RT1) | pKd (LRRC7, Q96NW7) | further results
1 | B1 | 5.31 | 5.19 | 4.15 | below the threshold | below the threshold | below the threshold | 4.75 | below the threshold | 5.58 | below the threshold | below the threshold | below the threshold | below the threshold | below the threshold | below the threshold | below the threshold | below the threshold | 4.27 | 4.2 | 4.17 | pKd (TJP1_3, Q07157): below the threshold; pKd (HTRA4, P83105): 4.65; pKd (CARD11, Q9BXL7): 3.64; pKd (Inadl_1, Q8NI35): 4.54; pKd (DLG4_2, P78352): below the threshold; pKd (NHERF3_4, Q5T2W1): 4.18
2 | B2 | below the threshold | below the threshold | 3.76 | below the threshold | below the threshold | below the threshold | 5.52 | below the threshold | 3.89 | 5.64 | 4.39 | below the threshold | below the threshold | below the threshold | 5.05 | below the threshold | 4.77 | 3.91 | 3.99 | 4.02 | pKd (TJP1_3, Q07157): below the threshold; pKd (HTRA4, P83105): below the threshold; pKd (CARD11, Q9BXL7): below the threshold; pKd (Inadl_1, Q8NI35): below the threshold; pKd (DLG4_2, P78352): 5.71; pKd (NHERF3_4, Q5T2W1): below the threshold
3 | B3 | 4.3 | below the threshold | 4.34 | 3.49 | below the threshold | below the threshold | below the threshold | below the threshold | 4.72 | below the threshold | below the threshold | 4.06 | below the threshold | below the threshold | below the threshold | below the threshold | below the threshold | below the threshold | 4.01 | below the threshold | pKd (TJP1_3, Q07157): 3.89; pKd (HTRA4, P83105): 4.9; pKd (CARD11, Q9BXL7): below the threshold; pKd (Inadl_1, Q8NI35): below the threshold; pKd (DLG4_2, P78352): below the threshold; pKd (NHERF3_4, Q5T2W1): below the threshold
4 | B4 | below the threshold | below the threshold | 3.49 | 4.57 | below the threshold | below the threshold | 5.74 | 5.19 | 5.62 | 3.52 | 3.84 | below the threshold | below the threshold | 5.43 | below the threshold | below the threshold | below the threshold | 4.14 | 3.59 | 3.52 | pKd (TJP1_3, Q07157): 3.67; pKd (HTRA4, P83105): 3.86; pKd (CARD11, Q9BXL7): below the threshold; pKd (Inadl_1, Q8NI35): 4.25; pKd (DLG4_2, P78352): 3.75; pKd (NHERF3_4, Q5T2W1): below the threshold
5 | B5 | below the threshold | 4.81 | below the threshold | below the threshold | below the threshold | below the threshold | below the threshold | below the threshold | below the threshold | below the threshold | below the threshold | 4.11 | below the threshold | below the threshold | below the threshold | below the threshold | below the threshold | below the threshold | below the threshold | below the threshold | pKd (TJP1_3, Q07157): below the threshold; pKd (HTRA4, P83105): 3.8; pKd (CARD11, Q9BXL7): below the threshold; pKd (Inadl_1, Q8NI35): below the threshold; pKd (DLG4_2, P78352): below the threshold; pKd (NHERF3_4, Q5T2W1): 4.52
6 | B6 | below the threshold | below the threshold | 3.68 | below the threshold | below the threshold | below the threshold | below the threshold | below the threshold | 3.56 | 4.54 | 4.42 | 4.08 | below the threshold | below the threshold | 4.87 | below the threshold | 4.06 | below the threshold | below the threshold | below the threshold | pKd (TJP1_3, Q07157): below the threshold; pKd (HTRA4, P83105): below the threshold; pKd (CARD11, Q9BXL7): below the threshold; pKd (Inadl_1, Q8NI35): below the threshold; pKd (DLG4_2, P78352): 4.34; pKd (NHERF3_4, Q5T2W1): 3.49
